This note sets out measurements from the supplement of paper PMC10201428.

The labels stand for the following.
B1: library; a variant is named by its letters at N, in order (parent)
chain: AATGTTGTTGATGCAACCATAAAGTGATATTTAATAATTATTTATAATCAGCAACTTAACCACAAAACAACCATATATTGATATNTCACAAAACAACCATAANTTGATATTTTTGTGAATCGAGTATTTCAGCAAAACTACTGCAGTAAGAA

Data set [1] covers variants of B1. Kind of data set: relative integration efficiency (T-LR orientation) vs wild-type transposon end (log2 (normalized fold change)); transposon end mutated: left end; higher = more efficient transposition. The settings on record: with VchCAST RNA-guided transposition machinery (E. coli BL21(DE3) host, lacZ target). An outline of the steps: (§1)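 In E. coli BL21(DE3), a T7-driven effector plasmid was paired with a pUC57 mini-transposon donor containing 1549 left-end or 1849 right-end barcoded transposon variants. Cells grew on plates with 0.1 mM IPTG at 37°C for 18 h. Relative integration efficiency was derived from Illumina reads of genomic integration junctions against input plasmids, as a log-transformed output/input barcode fold change normalised to reference barcodes.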

The variants in data set [2] derive from B1. The data set is described as follows: relative integration efficiency (T-RL orientation) vs wild-type transposon end (log2 (normalized fold change)); transposon end mutated: left end; higher = more efficient transposition. The settings on record: with VchCAST RNA-guided transposition machinery (E. coli BL21(DE3) host, lacZ target). An outline of the steps: as §1

± gives the standard deviation of the averaged measurements.

As for AATGTTGTTGATGCAACCATAAAGTGATATTTAATAATTATTTATAATCAGCAACTTAACCACAAAACAACCATATATTGATATCTCTGAAAACAACCATAAGTTGATATTTTTGTGAATCGAGTATTTCAGCAAAACTACTGCAGTAAGAA, the “relative integration efficiency (log2)” value amounted to 0.362 ± 0.31 in data set [1] and 0.178 ± 0.048 in data set [2].
For the variant AATGTTGTTGATGCAACCATAAAGTGATATTTAATAATTATTTATAATCAGCAACTTAACCACAAAACAACCATATATTGATATCTCACCCCCCAACCATAAGTTGATATTTTTGTGAATCGAGTATTTCAGCAAAACTACTGCAGTAAGAA, the “relative integration efficiency (log2)” value is -0.132 ± 0.77 in data set [1] and -0.283 ± 0.31 in data set [2].
Consider AATGTTGTTGATGCAACCATAAAGTGATATTTAATAATTATTTATAATCAGCAACTTAACCACAAAACAACCATATATTGATATCTCGCAAAACAACCATAAGTTGATATTTTTGTGAATCGAGTATTTCAGCAAAACTACTGCAGTAAGAA, for which the “relative integration efficiency (log2)” value is -0.182 ± 0.22 in data set [1] and -0.24 ± 0.098 in data set [2].
Turning to AATGTTGTTGATGCAACCATAAAGTGATATTTAATAATTATTTATAATCAGCAACTTAACCACAAAACAACCATATATTGATATCTCTCAAAACAACCATAAGTTGATATTTTTGTGAATCGAGTATTTCAGCAAAACTACTGCAGTAAGAA, the “relative integration efficiency (log2)” value in data set [1] was determined as 0.112 ± 0.73; in data set [2], 0.0226 ± 0.1.
For the variant AATGTTGTTGATGCAACCATAAAGTGATATTTAATAATTATTTATAATCAGCAACTTAACCACAAAACAACCATATATTGATATCTCCAAAAACAACCATAAGTTGATATTTTTGTGAATCGAGTATTTCAGCAAAACTACTGCAGTAAGAA, the results for the “relative integration efficiency (log2)” value in data set [1] and in data set [2] were 0.0423 ± 0.026 and 0.0174 ± 0.062, respectively.
As for AATGTTGTTGATGCAACCATAAAGTGATATTTAATAATTATTTATAATCAGCAACTTAACCACAAAACAACCATATATTGATATCTCACCCAACAACCATAAGTTGATATTTTTGTGAATCGAGTATTTCAGCAAAACTACTGCAGTAAGAA, the “relative integration efficiency (log2)” value was -0.406 ± 0.87 in data set [1] and -0.15 ± 0.34 in data set [2].
Turning to AATGTTGTTGATGCAACCATAAAGTGATATTTAATAATTATTTATAATCAGCAACTTAACCACAAAACAACCATATATTGATATCTCTGTTAACAACCATAAGTTGATATTTTTGTGAATCGAGTATTTCAGCAAAACTACTGCAGTAAGAA, the “relative integration efficiency (log2)” value is -0.283 ± 0.86 in data set [1] and -0.432 ± 0.33 in data set [2].
With AATGTTGTTGATGCAACCATAAAGTGATATTTAATAATTATTTATAATCAGCAACTTAACCACAAAACAACCATATATTGATATCTCCACCAACAACCATAAGTTGATATTTTTGTGAATCGAGTATTTCAGCAAAACTACTGCAGTAAGAA, the “relative integration efficiency (log2)” value in data set [1] is -0.0905 ± 0.58; in data set [2], -0.404 ± 0.32.
Consider AATGTTGTTGATGCAACCATAAAGTGATATTTAATAATTATTTATAATCAGCAACTTAACCACAAAACAACCATATATTGATATCTCACGAAACAACCATAAGTTGATATTTTTGTGAATCGAGTATTTCAGCAAAACTACTGCAGTAAGAA, for which the “relative integration efficiency (log2)” value in data set [1] is -0.331 ± 0.48; in data set [2], -0.339 ± 0.053.
In the same order, the values of AATGTTGTTGATGCAACCATAAAGTGATATTTAATAATTATTTATAATCAGCAACTTAACCACAAAACAACCATATATTGATATCTCACCAAACAACCATAAGTTGATATTTTTGTGAATCGAGTATTTCAGCAAAACTACTGCAGTAAGAA are -0.155 ± 0.19 and -0.278 ± 0.11.
